# Assay results published in patent US20250136683A1 (SINOMAB BIOSCIENCE, published 2025).
# B1: SM06 (antibody, V domains shown)
# VH: EVQLVESGGGLVQPGGSLRLSCAASGFSFSIYDMSWVRQAPGKGLEWVAYISSGGGTTYYPDTVKGRFTISRDNAKNSLYLQMNSLRVEDTALYYCARHSGYGSSYGVLFAYWGQGTLVTVSS
# VL: DIQLTQSPSSLSASVGDRVTISCRASQDISNYLNWYQQKPGKAPKLLIYYTSILHSGVPSRFSGSGSGTEFTLTISSLQPEDFATYFCQQGNTLPWTFGGGTKVEIKR
# notes: Framework-patched (humanized) anti-CD22 antibody with human constant regions; also called framework-patched (humanized) version of SM03
# B2: SM03 (antibody, V domains shown)
# VH: QVQLQESGGGLVKPGGSLKLSCAASGFAFSIYDMSWVRQTPEKRLEWVAYISSGGGTTYYPDTVKGRFTISRDNAKNTLYLQMSSLKSEDTAMYYCARHSGYGSSYGVLFAYWGQGTLVTVSS
# VL: DIQLTQTTSSLSASLGDRVTISCRASQDISNYLNWYQQKPDGTVKLLIYYTSILHSGVPSRFSGSGSGTDYSLTISNLEQEDFATYFCQQGNTLPWTFGGGTKLEIKR
# notes: Chimeric antibody against human CD22: murine variable regions with human constant regions; The embodiments speak of an IgG1 heavy chain and kappa light chain constant region; also called anti-CD22 antibody SM03; chimeric anti-CD22 antibody
# Assays:
# [1] = target: T1, LRID (murine IgG anti-idiotype antibody against the antigen binding site of SM03 and SM06); assay: direct ELISA, plate coated with LRID
# T1 construct: An scFv from a phage library, re-engineered as a murine IgG; also called anti-idiotype antibody for SM03; surrogate antigen for CD22
# [2] = target: T2, recombinant human CD22 encompassing domains 2-4 (CD22d2-4) (human, UniProt P20273 139-417); assay: direct ELISA, plate coated with CD22d2-4
# T2 construct: also called domain 2-4 of recombinant human CD22 antigen
# [3] = target: LRID Fab fused to the transmembrane portion of glycophorin A, on SP2/0 cells (Fab-GlycoA); assay: cell-based or functional assay
# [4] = target: LRID Fab fused to the GPI signal sequence from decay accelerating factor (DAF), on SP2/0 cells (Fab-GPI); assay: cell-based or functional assay
# [5] = target: T2, recombinant human CD22 encompassing …; assay: ELISA, plate coated with refolded CD22d2-4, % Binding
# Description: Preliminary epitope mapping was done by expressing different combinations of extracellular domains encompassing the human CD22 sequence in bacteria and the refolded recombinant proteins were tested for binding to SM03 in an ELISA assay. […] There are 6 extracellular domains for human CD22 antigen that are expressed on the surface of matured B cells. […] Briefly, the DNA sequence encoding different domain regions of human CD22 were cloned into a pET bacterial expression vector preceded with a pelB sequence (as described in Ward et al. (1989) Nature 341:544-546). The expression vectors were used to transform bacterial host cell BL21 (DE3) pLysS (Promega, Madison, WI) using standard techniques in molecular biology: expression of the transfected genes were induced by the addition of 1 mM of isopropyle β-D-thiogalactoside (IPTG). After incubating at 37° C. for 4 hours with orbital shaking at 250 rpm, the bacteria were pelleted by centrifugation at 6,000 rpm for 15 minutes. Cells were lysed in lysis buffer (50 mM Tris-HCl, pH 8 containing 0.1 M NaCl, 5 mM EDTA, 0.1% NaN₃, 0.5% TritonX-100, 100 μM PMSF and 1 mM DTT) with the aid of a glass homogenizer. After French press treatment, 2.5 mM MgCl₂ was added to chelate the EDTA, and 0.1 mg/ml Lysozyme and 0.01 mg/ml DNase were added and the mixture was incubated at room temperature for 20 minutes. […]
# [6] = target: T3, human recombinant CD22 (PeproTech) (human, UniProt P20273 20-687, limits assumed); assay: SPR (BIAcore), CD22 immobilized on CM5 chip, SM03 injected
# T3 construct: Bought protein immobilized on a CM5 chip; also called recombinant human CD22 antigen; human CD22 antigen
# Description: Affinity of anti-CD22 antibodies against human CD22 was performed using BIAcore (GE Healthcare Life Sciences, Piscataway, NJ) according to standard procedures. Briefly, human recombinant CD22 (20 μg/ml, PeproTech, Rocky Hill, NJ) was immobilized on carboxymethylated dextran-coated CM5 sensor chip. The chip surface was firstly activated with N-ethyl-N′-(3-[…]) carbodiimide hydrochloride (EDC) and N-hydroxysuccinimide (NHS). […] The dissociation was studied by washing with running buffer for 3 min. The chip surface was then regenerated by injection with 50 mM glycine-Cl for 60 s. Kinetic parameters including ka (association rate constant) and kd (dissociation rate constant) were estimated using the BIA evaluation software. The specific binding curves were normalized by subtracting the control curve.
# T1 sequence (VH, as listed by the source, chain 1 of 2): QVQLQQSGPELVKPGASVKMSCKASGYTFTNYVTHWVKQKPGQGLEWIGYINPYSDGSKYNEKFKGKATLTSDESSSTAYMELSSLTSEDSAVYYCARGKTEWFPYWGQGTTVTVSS
# T1 sequence (VL, as listed by the source, chain 2 of 2): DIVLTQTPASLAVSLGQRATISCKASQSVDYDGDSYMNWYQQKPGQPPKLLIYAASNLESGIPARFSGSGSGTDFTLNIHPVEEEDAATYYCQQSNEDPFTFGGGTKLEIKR
# Sequence of LRID Fab fused to the GPI signal sequence from decay accelerating factor (DAF), on SP2/0 cells (Fab-GPI) (VH, as listed by the source, chain 1 of 2): as the sequence (VH, as listed by the source, chain 1 of 2) above
# Sequence of LRID Fab fused to the GPI signal sequence from decay accelerating factor (DAF), on SP2/0 cells (Fab-GPI) (VL, as listed by the source, chain 2 of 2): as the sequence (VL, as listed by the source, chain 2 of 2) above
# Sequence of LRID Fab fused to the transmembrane portion of glycophorin A, on SP2/0 cells (Fab-GlycoA) (VH, as listed by the source, chain 1 of 2): as the sequence (VH, as listed by the source, chain 1 of 2) above
# Sequence of LRID Fab fused to the transmembrane portion of glycophorin A, on SP2/0 cells (Fab-GlycoA) (VL, as listed by the source, chain 2 of 2): as the sequence (VL, as listed by the source, chain 2 of 2) above
Binder,EC50 [1] [µg/mL],EC50 [2] [µg/mL],"CMC killing of surrogate target cells, EC50 [3] [µg/mL]","CMC killing of surrogate target cells, EC50 [4] [µg/mL]",EC50 (read off the curve) [5] [µg/mL],Ka [6] [M⁻¹],Kd [6] [nM],koff [6] [s⁻¹],kon [6] [M⁻¹ s⁻¹]
B1,0.065,0.14,–,–,–,–,–,–,–
B2,0.08,0.1,130,220,~0.02,8.2e+08,1.22,0.0137,1.13e+07
